Experimental data reported in patent EP4663654A1 (Hangzhou Sciwind Biosciences Co., Ltd., dated 2025).
Each block holds one binder with its values, some of them ahead of it. Starred links: 1 amine or outer side, 2 acyl side, 3 side chain; linkers in the order of their positions; H or OH if unused. Non-standard residues stand in square brackets, D forms with d. *: point of attachment. C20 diacid = O=C(O)CCCCCCCCCCCCCCCCCCC(=O)*; γGlu = O=C(O)[C@H](CCC(=O)[*:2])N[*:1]; Hyp = O=C(O)[C@@H]1C[C@@H](O)CN1; NMeD = CN[C@@H](CC(=O)O)C(=O)O; NMeN = CN[C@@H](CC(N)=O)C(=O)O

Molecular target: T1, human amylin receptor (AMY3) on CHO-K1/Ga15/AMY3 amylin receptor/CRE-luc cells (human, UniProt P30988 25-474; O60896 24-148)
T1 sequence (looked up) 1: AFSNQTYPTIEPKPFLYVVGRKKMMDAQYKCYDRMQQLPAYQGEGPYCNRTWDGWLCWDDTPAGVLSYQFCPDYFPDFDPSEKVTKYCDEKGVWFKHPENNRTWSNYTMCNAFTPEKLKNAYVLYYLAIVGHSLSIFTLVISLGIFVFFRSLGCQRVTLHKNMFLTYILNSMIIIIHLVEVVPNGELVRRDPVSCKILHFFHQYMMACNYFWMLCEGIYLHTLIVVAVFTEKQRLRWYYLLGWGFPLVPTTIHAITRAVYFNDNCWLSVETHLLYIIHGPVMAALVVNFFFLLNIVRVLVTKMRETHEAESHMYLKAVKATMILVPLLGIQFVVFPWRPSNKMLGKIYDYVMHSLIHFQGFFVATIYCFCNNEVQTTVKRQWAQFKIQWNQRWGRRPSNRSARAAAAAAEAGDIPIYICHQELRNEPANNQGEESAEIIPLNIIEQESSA
T1 sequence (looked up) 2: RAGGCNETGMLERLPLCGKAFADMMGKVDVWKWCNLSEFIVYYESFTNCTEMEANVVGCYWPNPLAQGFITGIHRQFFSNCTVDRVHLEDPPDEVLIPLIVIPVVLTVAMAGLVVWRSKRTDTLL
Assay: cell-based or functional assay

B4: polypeptide derivative M42 (peptide)
peptide: {C20 diacid-γGlu}-ASQLSTAATQRLADFLRHSSEELKPILPPTNVGSNT[Hyp]-NH2
SMILES: CC[C@H](C)[C@H](NC(=O)[C@@H]1CCCN1C(=O)[C@H](CCCCN)NC(=O)[C@H](CC(C)C)NC(=O)[C@H](CCC(=O)O)NC(=O)[C@H](CCC(=O)O)NC(=O)[C@H](CO)NC(=O)[C@H](CO)NC(=O)[C@H](Cc1c[nH]cn1)NC(=O)[C@H](CCCNC(=N)N)NC(=O)[C@H](CC(C)C)NC(=O)[C@H](Cc1ccccc1)NC(=O)[C@H](CC(=O)O)NC(=O)[C@H](C)NC(=O)[C@H](CC(C)C)NC(=O)[C@H](CCCNC(=N)N)NC(=O)[C@H](CCC(N)=O)NC(=O)[C@@H](NC(=O)[C@H](C)NC(=O)[C@H](C)NC(=O)[C@@H](NC(=O)[C@H](CO)NC(=O)[C@H](CC(C)C)NC(=O)[C@H](CCC(N)=O)NC(=O)[C@H](CO)NC(=O)[C@H](C)NC(=O)CC[C@H](NC(=O)CCCCCCCCCCCCCCCCCCC(=O)O)C(=O)O)[C@@H](C)O)[C@@H](C)O)C(=O)N[C@@H](CC(C)C)C(=O)N1CCC[C@H]1C(=O)N1CCC[C@H]1C(=O)N[C@H](C(=O)N[C@@H](CC(N)=O)C(=O)N[C@H](C(=O)NCC(=O)N[C@@H](CO)C(=O)N[C@@H](CC(N)=O)C(=O)N[C@H](C(=O)N1C[C@H](O)C[C@H]1C(N)=O)[C@@H](C)O)C(C)C)[C@@H](C)O
- EC50/nM, CRE-luciferase reporter in amylin receptor/CRE-luc CHO cells: 0.28 nM
- Relative activity (the EC50 ratio of Cagrilintide to the compound): 32%

B5: polypeptide derivative M41 (peptide)
peptide: {C20 diacid-γGlu}-ASQLSTAATQRLADFLRHSSQQLKPILPPTNVGSNT[Hyp]-NH2
SMILES: CC[C@H](C)[C@H](NC(=O)[C@@H]1CCCN1C(=O)[C@H](CCCCN)NC(=O)[C@H](CC(C)C)NC(=O)[C@H](CCC(N)=O)NC(=O)[C@H](CCC(N)=O)NC(=O)[C@H](CO)NC(=O)[C@H](CO)NC(=O)[C@H](Cc1c[nH]cn1)NC(=O)[C@H](CCCNC(=N)N)NC(=O)[C@H](CC(C)C)NC(=O)[C@H](Cc1ccccc1)NC(=O)[C@H](CC(=O)O)NC(=O)[C@H](C)NC(=O)[C@H](CC(C)C)NC(=O)[C@H](CCCNC(=N)N)NC(=O)[C@H](CCC(N)=O)NC(=O)[C@@H](NC(=O)[C@H](C)NC(=O)[C@H](C)NC(=O)[C@@H](NC(=O)[C@H](CO)NC(=O)[C@H](CC(C)C)NC(=O)[C@H](CCC(N)=O)NC(=O)[C@H](CO)NC(=O)[C@H](C)NC(=O)CC[C@H](NC(=O)CCCCCCCCCCCCCCCCCCC(=O)O)C(=O)O)[C@@H](C)O)[C@@H](C)O)C(=O)N[C@@H](CC(C)C)C(=O)N1CCC[C@H]1C(=O)N1CCC[C@H]1C(=O)N[C@H](C(=O)N[C@@H](CC(N)=O)C(=O)N[C@H](C(=O)NCC(=O)N[C@@H](CO)C(=O)N[C@@H](CC(N)=O)C(=O)N[C@H](C(=O)N1C[C@H](O)C[C@H]1C(N)=O)[C@@H](C)O)C(C)C)[C@@H](C)O
- EC50/nM, CRE-luciferase reporter in amylin receptor/CRE-luc CHO cells: 0.08 nM
- Relative activity (the EC50 ratio of Cagrilintide to the compound): 113%

More lines, now with the values ahead:

- EC50/nM, CRE-luciferase reporter in amylin receptor/CRE-luc CHO cells: 0.1 nM
- Relative activity (the EC50 ratio of Cagrilintide to the compound): 130%
B1: polypeptide derivative M44 (peptide)
peptide: {C20 diacid-γGlu}-ASQLSTAATQRLADFLRHSSN[NMeN]LKPILPPTNVGSNT[Hyp]-NH2
SMILES: CC[C@H](C)[C@H](NC(=O)[C@@H]1CCCN1C(=O)[C@H](CCCCN)NC(=O)[C@H](CC(C)C)NC(=O)[C@H](CC(N)=O)N(C)C(=O)[C@H](CC(N)=O)NC(=O)[C@H](CO)NC(=O)[C@H](CO)NC(=O)[C@H](Cc1c[nH]cn1)NC(=O)[C@H](CCCNC(=N)N)NC(=O)[C@H](CC(C)C)NC(=O)[C@H](Cc1ccccc1)NC(=O)[C@H](CC(=O)O)NC(=O)[C@H](C)NC(=O)[C@H](CC(C)C)NC(=O)[C@H](CCCNC(=N)N)NC(=O)[C@H](CCC(N)=O)NC(=O)[C@@H](NC(=O)[C@H](C)NC(=O)[C@H](C)NC(=O)[C@@H](NC(=O)[C@H](CO)NC(=O)[C@H](CC(C)C)NC(=O)[C@H](CCC(N)=O)NC(=O)[C@H](CO)NC(=O)[C@H](C)NC(=O)CC[C@H](NC(=O)CCCCCCCCCCCCCCCCCCC(=O)O)C(=O)O)[C@@H](C)O)[C@@H](C)O)C(=O)N[C@@H](CC(C)C)C(=O)N1CCC[C@H]1C(=O)N1CCC[C@H]1C(=O)N[C@H](C(=O)N[C@@H](CC(N)=O)C(=O)N[C@H](C(=O)NCC(=O)N[C@@H](CO)C(=O)N[C@@H](CC(N)=O)C(=O)N[C@H](C(=O)N1C[C@H](O)C[C@H]1C(N)=O)[C@@H](C)O)C(C)C)[C@@H](C)O

- EC50/nM, CRE-luciferase reporter in amylin receptor/CRE-luc CHO cells: 0.07 nM
- Relative activity (the EC50 ratio of Cagrilintide to the compound): 129%
B2: polypeptide derivative M45 (peptide)
peptide: {C20 diacid-γGlu}-ASQLSTAATQRLADFLRHSSN[NMeD]LKPILPPTNVGSNT[Hyp]-NH2
SMILES: CC[C@H](C)[C@H](NC(=O)[C@@H]1CCCN1C(=O)[C@H](CCCCN)NC(=O)[C@H](CC(C)C)NC(=O)[C@H](CC(=O)O)N(C)C(=O)[C@H](CC(N)=O)NC(=O)[C@H](CO)NC(=O)[C@H](CO)NC(=O)[C@H](Cc1c[nH]cn1)NC(=O)[C@H](CCCNC(=N)N)NC(=O)[C@H](CC(C)C)NC(=O)[C@H](Cc1ccccc1)NC(=O)[C@H](CC(=O)O)NC(=O)[C@H](C)NC(=O)[C@H](CC(C)C)NC(=O)[C@H](CCCNC(=N)N)NC(=O)[C@H](CCC(N)=O)NC(=O)[C@@H](NC(=O)[C@H](C)NC(=O)[C@H](C)NC(=O)[C@@H](NC(=O)[C@H](CO)NC(=O)[C@H](CC(C)C)NC(=O)[C@H](CCC(N)=O)NC(=O)[C@H](CO)NC(=O)[C@H](C)NC(=O)CC[C@H](NC(=O)CCCCCCCCCCCCCCCCCCC(=O)O)C(=O)O)[C@@H](C)O)[C@@H](C)O)C(=O)N[C@@H](CC(C)C)C(=O)N1CCC[C@H]1C(=O)N1CCC[C@H]1C(=O)N[C@H](C(=O)N[C@@H](CC(N)=O)C(=O)N[C@H](C(=O)NCC(=O)N[C@@H](CO)C(=O)N[C@@H](CC(N)=O)C(=O)N[C@H](C(=O)N1C[C@H](O)C[C@H]1C(N)=O)[C@@H](C)O)C(C)C)[C@@H](C)O

- EC50/nM, CRE-luciferase reporter in amylin receptor/CRE-luc CHO cells: 0.05 nM
- Relative activity (the EC50 ratio of Cagrilintide to the compound): 180%
B3: polypeptide derivative M43 (peptide)
peptide: {C20 diacid-γGlu}-ASQLSTAATQRLADFLRHSSSSLKPILPPTNVGSNT[Hyp]-NH2
SMILES: CC[C@H](C)[C@H](NC(=O)[C@@H]1CCCN1C(=O)[C@H](CCCCN)NC(=O)[C@H](CC(C)C)NC(=O)[C@H](CO)NC(=O)[C@H](CO)NC(=O)[C@H](CO)NC(=O)[C@H](CO)NC(=O)[C@H](Cc1c[nH]cn1)NC(=O)[C@H](CCCNC(=N)N)NC(=O)[C@H](CC(C)C)NC(=O)[C@H](Cc1ccccc1)NC(=O)[C@H](CC(=O)O)NC(=O)[C@H](C)NC(=O)[C@H](CC(C)C)NC(=O)[C@H](CCCNC(=N)N)NC(=O)[C@H](CCC(N)=O)NC(=O)[C@@H](NC(=O)[C@H](C)NC(=O)[C@H](C)NC(=O)[C@@H](NC(=O)[C@H](CO)NC(=O)[C@H](CC(C)C)NC(=O)[C@H](CCC(N)=O)NC(=O)[C@H](CO)NC(=O)[C@H](C)NC(=O)CC[C@H](NC(=O)CCCCCCCCCCCCCCCCCCC(=O)O)C(=O)O)[C@@H](C)O)[C@@H](C)O)C(=O)N[C@@H](CC(C)C)C(=O)N1CCC[C@H]1C(=O)N1CCC[C@H]1C(=O)N[C@H](C(=O)N[C@@H](CC(N)=O)C(=O)N[C@H](C(=O)NCC(=O)N[C@@H](CO)C(=O)N[C@@H](CC(N)=O)C(=O)N[C@H](C(=O)N1C[C@H](O)C[C@H]1C(N)=O)[C@@H](C)O)C(C)C)[C@@H](C)O
